Target: insulin (UniProt P01308;P01308 25-54;90-110)
Assay: circular dichroism; 20 uM aptamer, 100 nM insulin; G4 spectrum (min 245 nm, max 275 nm) after interaction with insulin; Binding buffer 20 mM Tris-HCl, 140 mM NaCl, 5 mM KCl, 1 mM CaCl2, 1 mM MgCl2, pH 7.4, room temperature, 40-60 min; then hemin in DMSO 1 h and TMB-H2O2; random N30 control is a pool and not listed
Conditions: protein: commercial, copies: 1;1, label: 5' biotin

Sequence of insulin (P01308 25-54, chain 1 of 2): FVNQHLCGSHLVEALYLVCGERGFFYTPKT
Sequence of insulin (P01308 90-110, chain 2 of 2): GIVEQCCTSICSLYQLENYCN

Binder: GGTGGTGGGGGGGGTTGGTAGGGTGTCTTC (structured_DNA) [G-quadruplex insulin aptamer (G-rich aptamer)]
- binding result: binds

Source: PMC5882713, “Sensitive colorimetric assay using insulin G-quadruplex aptamer arrays on DNA nanotubes coupled with magnetic nanoparticles”
